Data: US20090252729A1 (Biogen, published 2009)

T1: cynomolgus FcγR IIb (CD32b) (cynomolgus, UniProt A0A140HDP4 43-217)
T1 sequence: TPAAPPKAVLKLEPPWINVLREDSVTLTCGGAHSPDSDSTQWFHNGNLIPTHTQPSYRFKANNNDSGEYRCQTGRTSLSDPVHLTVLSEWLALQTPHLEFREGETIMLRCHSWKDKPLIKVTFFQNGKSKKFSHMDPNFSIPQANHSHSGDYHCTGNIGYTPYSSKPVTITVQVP

T2: cynomolgus FcγR IIa (CD32a) (cynomolgus, UniProt A0A140HDN0 28-215)
T2 sequence: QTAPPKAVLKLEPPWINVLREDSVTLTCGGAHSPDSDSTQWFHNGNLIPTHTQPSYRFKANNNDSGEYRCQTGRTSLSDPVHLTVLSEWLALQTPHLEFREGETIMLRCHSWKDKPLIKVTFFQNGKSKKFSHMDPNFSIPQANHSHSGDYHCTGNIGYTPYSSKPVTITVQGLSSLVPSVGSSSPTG

T3: human FcγR IIa (CD32a) (human, UniProt P12318 34-217, limits assumed)
T3 sequence (looked up): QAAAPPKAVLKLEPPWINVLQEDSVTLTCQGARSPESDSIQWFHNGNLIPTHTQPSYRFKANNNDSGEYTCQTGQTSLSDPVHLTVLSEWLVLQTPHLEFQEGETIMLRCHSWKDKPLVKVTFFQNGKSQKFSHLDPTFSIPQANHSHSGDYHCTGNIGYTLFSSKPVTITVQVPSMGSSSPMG

T4: human FcγR IIb (CD32b) (human, UniProt P31994 43-217, limits assumed)
T4 sequence (looked up): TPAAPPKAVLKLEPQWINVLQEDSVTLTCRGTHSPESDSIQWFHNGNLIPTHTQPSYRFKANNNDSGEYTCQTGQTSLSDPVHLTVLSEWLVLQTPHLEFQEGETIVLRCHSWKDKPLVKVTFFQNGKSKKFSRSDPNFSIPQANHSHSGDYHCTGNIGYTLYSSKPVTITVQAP

T5: LTα1β2 (coated on ELISA plates) (Homo sapiens (Human), UniProt P01374 35-205; Q06643 49-244, Heterotrimer of one alpha and two beta chains, as the name says.)
T5 construct: Heterotrimer of one alpha and two beta chains by its name; also called LTa1β2; copies: 1 + 1
T5 sequence (alpha): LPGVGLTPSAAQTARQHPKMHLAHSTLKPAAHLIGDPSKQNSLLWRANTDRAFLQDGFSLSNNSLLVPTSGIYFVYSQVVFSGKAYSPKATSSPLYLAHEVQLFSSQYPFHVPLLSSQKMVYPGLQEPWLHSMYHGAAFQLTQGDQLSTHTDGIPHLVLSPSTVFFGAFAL
T5 sequence (beta): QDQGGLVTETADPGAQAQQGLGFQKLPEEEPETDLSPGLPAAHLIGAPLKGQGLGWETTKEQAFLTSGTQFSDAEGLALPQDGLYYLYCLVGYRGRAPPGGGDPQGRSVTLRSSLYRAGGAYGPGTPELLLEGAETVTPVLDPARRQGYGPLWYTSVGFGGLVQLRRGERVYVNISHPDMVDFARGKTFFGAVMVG

T6: human LTα1β2 on phorbol myristate acetate activated II-23 cells (human, UniProt P01374 35-205; Q06643 1-244)
T6 construct: whole, on cells
T6 sequence (looked up) 1: T5 sequence (alpha)
T6 sequence (looked up) 2: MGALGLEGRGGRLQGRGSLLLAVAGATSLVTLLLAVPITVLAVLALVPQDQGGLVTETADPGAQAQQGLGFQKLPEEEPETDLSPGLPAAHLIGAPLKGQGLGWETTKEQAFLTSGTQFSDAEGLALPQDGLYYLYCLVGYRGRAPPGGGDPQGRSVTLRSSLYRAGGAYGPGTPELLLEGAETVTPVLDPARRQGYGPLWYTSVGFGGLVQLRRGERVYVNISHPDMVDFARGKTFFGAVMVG

B1: Hu5C8, conventional human IgG1 anti-CD40L antibody (antibody)
heavy: not shown
light: DIVLTQSPATLSVSPGERATISCRASQRVSSSTYSYMHWYQQKPGQPPKLLIKYASNLESGVPARFSGSGSGTDFTLTISSVEPEDFATYYCQHSWEIPPTFGGGTKLEIKRTVAAPSVFIFPPSDEQLKSGTASVVCLLNNFYPREAKVQWKVDNALQSGNSQESVTEQDSKDSTYSLSSTLTLSKADYEKHKVYACEVTHQGLSSPVTKSFNRGEC
modifications: N-glycan at EU N297; biotinylated (sites not given) in the CD40L ELISA
notes: Human IgG1, fully glycosylated, bivalent; Biotinylated in the CD40L ELISA; also called WT 5c8 hIgG1; WT 5C8 hIgG1
B2: 3×G4S-linked hemiglycosylated 5C8 scFc IgG1 antibody (pASK043) (antibody)
heavy: not shown
light: B1 light
notes: One heavy scFc chain and one light chain (monovalent); also called monovalent 3×G4S-linked hemiglycosylated scFc; hemi-glycosylated 3×-G4S linked scFc
B3: 1×G4S-linked hemiglycosylated 5C8 scFc IgG1 antibody (pEAG2066) (antibody)
heavy: not shown
light: B1 light
notes: plasmid not given; also called hemi-glycosylated 1×-G4S linked scFc; 1×G4S linked scFc
B4: 3×G4S-linked fully glycosylated 5C8 scFc IgG1 antibody (ASK048) (antibody)
heavy: not shown
light: B1 light
notes: also called fully glycosylated 3×G4S linked scFc
B5: LTβR:IgG, dimeric (Fc fusion, not shown: a dimerising Fc or GST; small tags and cut ends)
chain: QAVPPYASENQTCRDQEKEYYEPQHRICCSRCPPGTYVSAKCSRIRDTVCATCAENSYNEHWNYLTICQLCRPCDPVMGLEEIAPCTSKRKTQCRCQPGMFCAAWALECTHCELLSDCPPGTEAELKDEVGKGNNHCVPCKAGHFQNTSSPSARCQPHTRCENQGLVEAAPGTAQSDTTCKNPLEPLPPEMSGTMLM
modifications: Dimeric through its Fc, which is left out. A biotinylated form (bLTβRIgG) was also used in FACS.
notes: Conventional dimeric receptor-Fc fusion used as the comparator; also called bLTβRIgG (biotinylated)

How the values were obtained:
[1] = molecular target: T1, cynomolgus FcγR IIb (CD32b); test: Alphascreen assay, cynomolgus FcγR CD32b
[2] = molecular target: T2, cynomolgus FcγR IIa (CD32a); test: Alphascreen assay, cynomolgus FcγR CD32a (R)
human FcγR IIa (CD32a) = molecular target: T3, human FcγR IIa (CD32a); test: Alphascreen assay, human FcγR CD32a (R)
[3] = molecular target: cynomolgus FcγR III (CD16a) (cynomolgus, UniProt Q8SPW2 17-208, limits assumed); test: Alphascreen assay, cynomolgus FcγR CD16a
human FcγR IIb (CD32b) = molecular target: T4, human FcγR IIb (CD32b); test: Alphascreen assay, human FcγR CD32b
[4] = molecular target: T7, human FcRIII-GST (CD16a, V158) (human, UniProt P08637 17-208, limits assumed); test: Alphascreen competition assay, huCD16a V158-GST on anti-GST acceptor beads; competitor: biotinylated wild-type IgG1 on streptavidin donor beads; design: IC50 (read off the curve): unit not given here
T7 construct: also called human FcγRIII; FcγRIII (CD16a); not shown: GST tag
Procedure: (§1) The ability of scFc antibodies comprising GGGGS (“1×-G4S”) or (GGGS)3 (“3×-G4S”) linkers to engage Fcγ receptors was also evaluated in an Amplified Luminescent Proximity Homogeneous Assay (Alphascreen®; Perkin Elmer). Laser excitation (680 nm) of a donor bead generates singlet oxygen which, if in close proximity to an acceptor bead, initiates a cascase of events ultimately leading to fluorescence emission at 520-620 nm. Donor and acceptor beads decorated with ligand and receptor proteins, respectively, are brought into desired proximity only when the receptor and ligand become functionally engaged.
(§2) The Alphascreen® assay was performed in a competitive format in which serial dilutions of test antibodies (WT IgG1 or scFc) were incubated with human FcRIII-GST (CD16a, V158) and anti-GST acceptor beads overnight at 4° C. in a 96-well white plate. Streptavidin donor beads and biotinylated wild-type IgG1 were also incubated overnight at 4° C. in a separate tube and then added to the assay plate the next day. After a two-hour incubation at room temperature with gentle shaking the plates were read in an Envision® plate reader (Perkin Elmer).

[5] = molecular target: T7, human FcRIII-GST (CD16a, V158); test: Alphascreen assay, human FcγR CD16a
Procedure: as §1, §2

[6] = molecular target: T7, human FcRIII-GST (CD16a, V158); test: Alphascreen, competitive format, competitor biotinylated wild-type IgG1
Procedure: as §1, §2

[7] = molecular target: T7, human FcRIII-GST (CD16a, V158); test: Alphascreen
Procedure: as §1, §2

[8] = molecular target: T5, LTα1β2 (coated on ELISA plates); test: ELISA on plates coated with 5 ug/ml LTα1β2, detected with anti-human HRP secondary antibody. The value is parameter C (midpoint) of the four-parameter fit y = ((A-D)/(1+(x/C)^B))+D printed under the plot. The unit is taken from the x axis.
Procedure: FIG. 59A depicts the results of an ELISA evaluating the binding affinity of the monomeric LTβR:scFc to LTα1β2. ELISA plates were coated overnight at 4° C. with 5 ug/ml LTα1β2 in PBS. Plates were then blocked with 1% Casein in 10 mM PBS, pH 7.0, then washed with 10 mM PBS, pH 7.0, 0.1% Tween 20 (wash buffer) three times. LTβR:IgG or LTBβ:scFc serially diluted into 10 mM PBS, 362 mM NaCl, 0.055 Tween-20, 0.1% Casein, 5% FBS pH 7.0 (assay diluent) and incubated for 1 h, then washed with wash buffer. To each well was added Donkey anti-human heavy and light specific HRP (Jackson Labs) conjugated secondary antibody diluted 1:5000 in assay diluents for 60 min then washed with PBS. The HRP was developed using tetramethybenzidine and hydrogen peroxide in 100 mM NaAcetate pH 4.0 after several minutes, the assay was stopped by the addition of 100 uL of 1N sulfuric acid and sample absorbance read at 450 nm.

[9] = molecular target: T6, human LTα1β2 on phorbol myristate …; test: FACS direct binding on PMA-activated II-23 cells, mean fluorescence (MFI)
Procedure: The binding affinity of the monomeric LTβR:scFc was also evaluated by FACS analysis (FIG. 59B). FACS was done on II-23 cells according to the methods of Eldredge et al. (Eldredge, Berkowitz et al. 2006). FACS binding assays using flow cytometry were done according to the method previously described (Force, Walter et al. 1995). Briefly, in direct binding assays human LTα1β2 was detected on phorbol myristate acetate activated II-23 cells (American Type Culture Collection (ATCC) Manassas, Va.) in FACS buffer with varied concentrations of either the LTβRIgG or biotinylated LTβRIgG (bLTβRIgG). Cells were incubated on ice for 1-2 h then washed with PBS and centrifuged. The appropriate steptavidin phycoerythrin or anti-hFc phycoerythrin labeled secondary (Molecular Probes, Eugene, Oreg.) in FACS buffer was added and incubated with the cells for an additional 1 h and washed again. The fluorescent staining of the cellular bound LTβRIgG on the II-23 cells was quantified by determining the mean channel fluorescence by FACS. Both the FACS and ELISA show the LTβRscFc has a reduced binding affinity compared with LTβRIgG.

| Binder | EC50 [1] [nM] | EC50 [2] [nM] | EC50 (human FcγR IIa (CD32a)) [nM] | EC50 [3] [nM] | EC50 (human FcγR IIb (CD32b)) [nM] | EC50 [4] [nM] | EC50 [5] [nM] | fold lower affinity against fully glycosylated WT human IgG1 [6] [fold] | fold weaker binding against WT IgG1 [7] [fold] | IC50 (read off the curve) [4] | EC50 [8] [µg/mL] | EC50 (read off the curve) [9] [µg/mL] |
| --- | --- | --- | --- | --- | --- | --- | --- | --- | --- | --- | --- | --- |
| B1 | 52 | 359 | 511 | 37 | 292 | 12 | 22 |  |  |  |  |  |
| B2 | 72 | 221 | 949 | 89 | 552 | 77 | 59 | ~4 |  |  |  |  |
| B3 |  |  |  |  |  | 689 |  | ~57 | ~60 | ~70 |  |  |
| B4 | 17 | 206 | 304 | 32 | 183 |  | 18 |  |  |  |  |  |
| B5 |  |  |  |  |  |  |  |  |  |  | 0.028 | ~0.1 |
